What was measured:
[1] = target: T1, human EphA4 extracellular region-SEAP-His protein (human, UniProt P54764 20-547); assay: SPR (Biacore T200), human EphA4 extracellular region-SEAP-His captured on an anti-His antibody CM5 chip, antibody as analyte at 0.6-50 nM, 1:1 fit
T1 construct: also called hEphA4-SEAP-His
Procedure: (§1) Next, the binding affinity of antibody A-Fab and antibody A-F(ab′)₂ for mouse and human EphA4 was determined by surface plasmon resonance (SPR) using Biacore T200 (GE Healthcare). Antibody A obtained in Example 1 was used as a control for the comparison of each fragment. First, an anti-His tag antibody was immobilized on sensor chip CM5. The immobilization of the anti-His tag antibody on sensor chip CM5 was performed by the amine coupling method using N-hydroxysuccinimide (NHS) and N-ethyl-N′-(3-dimethylaminopropyl)carbodiimide hydrochloride (EDC). Ethanolamine was used in blocking (the sensor chip and the reagents for immobilization were all manufactured by GE Healthcare). The antibody was diluted with a buffer solution for immobilization (10 mM sodium acetate, pH 4.5) into 3 μg/mL and immobilized on the sensor chip according to the protocol attached to Biacore T200.
(§2) Mouse or human EphA4 extracellular region-SEAP-His protein was diluted with a running buffer solution HBS-EP (GE Healthcare, BR-1001-88), injected onto a flow cell for 120 seconds, and captured (amount of the protein captured: approximately 10 to 20 RU). Subsequently, antibody A (50, 16.7, 5.6, 1.9, 0.6, and 0 nM), antibody A-Fab (500, 166.7, 55.6, 18.5, 6.2, and 0 nM), or antibody A-F(ab′)₂ (50, 16.7, 5.6, 1.9, 0.6, and 0 nM) serially diluted using HBS-EP was added to the sensor chip for 120 seconds. Binding reaction curves were sequentially observed at the time of the addition (association phase, for 120 sec) and after the completion of the addition (dissociation phase, for 900 sec). After the completion of each observation, the sensor chip was regenerated by the addition of 3 M MgCl₂ (Wako Pure Chemical Industries) (for 30 sec). The obtained binding reaction curves were subjected to fitting analysis with 1:1 binding models using software BIA evaluation attached to the system to calculate the binding affinity (KD=kd/ka) for mouse and human EphA4.

[2] = target: T2, mouse EphA4 extracellular region-SEAP-His protein (mouse); assay: SPR (Biacore A100), antibody A captured on a rat anti-mouse IgG1 CM5 chip, mouse EphA4 extracellular region-SEAP-His as analyte at 0.8-50 nM, 1:1 fit
T2 sequence (chain, as listed by the source limits assumed): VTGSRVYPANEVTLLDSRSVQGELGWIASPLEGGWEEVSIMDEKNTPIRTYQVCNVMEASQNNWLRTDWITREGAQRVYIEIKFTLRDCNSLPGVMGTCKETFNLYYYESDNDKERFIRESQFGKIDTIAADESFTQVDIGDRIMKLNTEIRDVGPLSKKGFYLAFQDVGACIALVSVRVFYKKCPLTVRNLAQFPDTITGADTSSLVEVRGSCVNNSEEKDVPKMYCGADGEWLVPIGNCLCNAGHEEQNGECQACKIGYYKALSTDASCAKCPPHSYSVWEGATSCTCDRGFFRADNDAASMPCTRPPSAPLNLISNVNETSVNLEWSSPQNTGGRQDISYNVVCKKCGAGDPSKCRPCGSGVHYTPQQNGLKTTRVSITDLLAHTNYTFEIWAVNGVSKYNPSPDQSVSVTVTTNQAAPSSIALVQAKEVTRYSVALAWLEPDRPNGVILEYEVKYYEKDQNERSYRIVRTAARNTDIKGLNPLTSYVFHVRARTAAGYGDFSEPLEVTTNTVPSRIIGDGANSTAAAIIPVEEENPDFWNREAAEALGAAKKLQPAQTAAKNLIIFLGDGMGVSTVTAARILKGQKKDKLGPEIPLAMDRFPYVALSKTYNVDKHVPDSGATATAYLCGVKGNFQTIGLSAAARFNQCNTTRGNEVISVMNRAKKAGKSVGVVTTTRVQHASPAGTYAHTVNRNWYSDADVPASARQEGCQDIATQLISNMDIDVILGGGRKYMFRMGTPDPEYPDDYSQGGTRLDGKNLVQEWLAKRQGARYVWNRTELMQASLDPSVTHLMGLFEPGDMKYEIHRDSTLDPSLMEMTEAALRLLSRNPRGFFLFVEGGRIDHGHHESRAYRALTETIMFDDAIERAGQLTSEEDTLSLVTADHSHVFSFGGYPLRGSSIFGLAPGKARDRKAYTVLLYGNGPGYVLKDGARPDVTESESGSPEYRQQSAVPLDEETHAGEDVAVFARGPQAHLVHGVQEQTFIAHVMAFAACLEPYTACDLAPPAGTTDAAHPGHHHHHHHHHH
Procedure: The binding affinity of antibody A obtained in Example 1 for mouse and human EphA4 was determined by surface plasmon resonance (SPR) using Biacore A100 (GE Healthcare). First, a rat anti-mouse IgG₁ antibody produced with a conventional procedure by immunizing rat with a mouse IgG₁ antibody was immobilized on sensor chip CM5. The immobilization of the rat anti-mouse IgG1 antibody on sensor chip CM5 was performed by the amine coupling method using N-hydroxysuccinimide (NHS) and N-ethyl-N′-(3-dimethylaminopropyl)carbodiimide hydrochloride (EDC). Ethanolamine was used in blocking (the sensor chip and the reagents for immobilization were all manufactured by GE Healthcare). The antibody was diluted with a buffer solution for immobilization (10 mM sodium acetate, pH 4.5) into 1 to 2 μg/mL and immobilized on the sensor chip according to the protocol attached to Biacore A100. Antibody A was diluted with a running buffer solution HBS-EP (GE Healthcare, BR-1001-88), injected onto a flow cell for 120 seconds, and captured (amount of the antibody captured: approximately 70 to 100 RU). Subsequently, mouse or human EphA4 extracellular region-SEAP-His serially diluted in the range of 50, 25, 12.5, 6.3, 3.1, 1.6, 0.8, and 0 nM using HBS-EP was added to the sensor chip for 120 seconds. […]

[3] = target: T1, human EphA4 extracellular …; assay: SPR (Biacore T200), human EphA4 extracellular region-SEAP-His captured on an anti-His antibody CM5 chip, antibody as analyte at 0.6-50 nM, 1:1 fit (run alongside F(ab')2)
Procedure: as §1, §2

[4] = target: T2, mouse EphA4 extracellular …; assay: SPR (Biacore T200), mouse EphA4 extracellular region-SEAP-His captured on an anti-His antibody CM5 chip, antibody as analyte at 0.6-50 nM, 1:1 fit (run alongside F(ab')2)
Procedure: as §1, §2

T1 sequence (P54764 20-547): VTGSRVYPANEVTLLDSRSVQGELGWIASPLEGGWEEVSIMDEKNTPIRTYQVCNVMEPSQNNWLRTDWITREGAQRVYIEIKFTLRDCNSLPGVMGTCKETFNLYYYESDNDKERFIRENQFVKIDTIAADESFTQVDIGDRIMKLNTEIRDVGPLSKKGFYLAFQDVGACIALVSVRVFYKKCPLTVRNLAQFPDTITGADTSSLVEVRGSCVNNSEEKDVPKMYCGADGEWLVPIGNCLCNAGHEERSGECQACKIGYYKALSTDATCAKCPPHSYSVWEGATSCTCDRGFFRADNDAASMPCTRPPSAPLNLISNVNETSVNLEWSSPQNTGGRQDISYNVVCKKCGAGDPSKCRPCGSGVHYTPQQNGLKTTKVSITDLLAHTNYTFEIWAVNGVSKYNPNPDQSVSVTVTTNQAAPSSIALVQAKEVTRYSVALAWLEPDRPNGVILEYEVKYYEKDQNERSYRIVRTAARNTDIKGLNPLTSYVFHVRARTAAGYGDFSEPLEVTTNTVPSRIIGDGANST

B1: antibody A (antibody, mouse IgG1, kappa, V domains shown)
VH: QIQLVQSGPELKKPGETVKISCKASGYTFTDYSMHWVKQAPGKGLKWMGWINTETGEPTYADDFKGRFAFSLETSASTAYLQINNLKNEDTATYFCARIPLYYYGSRYWYFDVWGAGTTVTVSS
VL: DIQMTQSPASLSVSVGETVTITCRASENIYRNLAWYQQKQGKSPQLLVYAATNLADGVPSRFSGSGSGTQYSLKINSLQSEDFGSYYCQHFWGTPWTFGGGTKLEIKR
notes: mouse IgG1 heavy chain, kappa light chain; purified from hybridoma supernatant; also called anti-EphA4 monoclonal antibody; antibody A-IgG
Kd [1]: 0.144 nM | koff [1]: 0.000389 s⁻¹ | kon [1]: 2.7e+06 M⁻¹ s⁻¹ | koff [2]: 0.000144 s⁻¹ | kon [2]: 218000 M⁻¹ s⁻¹ | Kd [3]: 0.0399 nM | koff [3]: 0.000236 s⁻¹ | kon [3]: 5.91e+06 M⁻¹ s⁻¹ | Kd [4]: 0.0423 nM | koff [4]: 0.000288 s⁻¹ | kon [4]: 6.81e+06 M⁻¹ s⁻¹

Source: patent publication US20190077860A1 (EISAI R AND D MANAGEMENT, published 2019)
